Test results reported in patent US20240287172A1 (SCIRHOM, published 2024).

Target: T1, hiR2-FL-F588H-T7 (human, UniProt Q6PJF5 1-856)
T1 sequence: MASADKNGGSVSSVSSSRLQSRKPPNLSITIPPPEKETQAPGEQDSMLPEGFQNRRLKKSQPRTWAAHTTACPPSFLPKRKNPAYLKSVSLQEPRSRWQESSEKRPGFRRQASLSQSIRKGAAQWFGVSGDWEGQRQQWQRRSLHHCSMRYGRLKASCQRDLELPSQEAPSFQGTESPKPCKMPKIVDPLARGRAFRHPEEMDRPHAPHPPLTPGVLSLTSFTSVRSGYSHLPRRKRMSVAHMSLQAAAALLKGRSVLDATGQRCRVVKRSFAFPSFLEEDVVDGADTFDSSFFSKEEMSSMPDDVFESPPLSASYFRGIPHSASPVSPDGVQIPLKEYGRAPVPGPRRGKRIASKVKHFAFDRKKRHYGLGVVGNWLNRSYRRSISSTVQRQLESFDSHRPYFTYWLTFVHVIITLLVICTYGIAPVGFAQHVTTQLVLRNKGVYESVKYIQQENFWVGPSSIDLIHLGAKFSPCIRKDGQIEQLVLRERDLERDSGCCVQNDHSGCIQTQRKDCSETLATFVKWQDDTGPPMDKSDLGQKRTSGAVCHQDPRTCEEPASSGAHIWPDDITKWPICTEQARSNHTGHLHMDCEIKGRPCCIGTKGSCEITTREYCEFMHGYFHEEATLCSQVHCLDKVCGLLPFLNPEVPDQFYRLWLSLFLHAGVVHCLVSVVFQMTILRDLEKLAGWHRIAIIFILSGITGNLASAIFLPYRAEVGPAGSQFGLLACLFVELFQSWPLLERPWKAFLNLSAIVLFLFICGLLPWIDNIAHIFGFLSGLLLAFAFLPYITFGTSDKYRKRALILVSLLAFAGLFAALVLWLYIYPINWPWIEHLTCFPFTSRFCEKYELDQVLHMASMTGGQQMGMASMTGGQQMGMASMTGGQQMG
Assay: FACS, MEF-DKO cells, 3 µg/ml
Outline: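 Binding read by flow cytometry after a PE goat anti-mouse IgG F(ab′)2 secondary (1:100, on ice, 1 h, dark). Before that, immortalized MEF-DKO lines carrying single-mutant hiR2-FL-T7 constructs were incubated 1 h on ice with 3 μg/ml antibody or FACS buffer alone.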

B1: antibody 3 (antibody, V domains shown)
VH: QVTLKESGPGILQPSQTLSLTCSFSGFSLTTFAMGIGWVRQPSGKGLEWLAHIWWDGEKYNNPVLKSRLTISKDTSKNQVFLRIANVDTPDTATYYCARISSIYYIIDNWGQGTSVTVSS
VL: DIVLTQSPATLSVTPGHSVSLSCRASQSISNNLHWYQKKSHESPRLLIKYVSQSISGIPSRFSGSGSGTDFTLSINSVETEDFGMYFCQQSYNWPLTFGAGTKLELK
notes: mouse IgG, kappa light chain; also called clone #3; purified antibody 3
For B1, which “loss of binding vs wild type” value is on record?
The value was ≥ 30%.
